Tests used:
SlNADP-ME4a = assay: initial velocity, spectrophotometric; type: biochemical, Solanum lycopersicum; conditions: pyruvate reductive carboxylation (reverse reaction); assay details not given
[1] = substrate: CC(=O)C(=O)O; assay: initial velocity, spectrophotometric; type: biochemical, Solanum lycopersicum; conditions: pyruvate reductive carboxylation (reverse reaction); assay details not given

Molecule | Km (SlNADP-ME4a) [mM] | Km [1] [mM] | kcat [1] [s⁻¹]
CC(=O)C(=O)O [pyr] | 15.5 ± 1 |  | 
SlNADP-ME2 (Solanum lycopersicum) (protein) MESALKDLSTPTGGVEDVYGEDCATEDQCITPWTIAVSSGYNLLRDPRYNKGLAFTERERDAHYLRGLLPPVISSQELQEKKLMQSIRQYDVPLHKYVAMMELEERNERLFYKLLIDNVEELLPIVYTPTVGEACQKYGSLFKRPQGLYISLNEKGRILEVLKNWPEKSIQVIVVTDGERILGLGDLGCQGMGIPVGKLALYTALGGVRPSACLPITIDVGTNNEKLLNDEFYIGLRQRRATGQEYYDFLHEFMSAVKQNYGEKILVQFEDFANHNAFELLAKYRTSHLVFNDDIQGTASVVLAGLIASLKLLGGALCDHTFLFLGAGEAGTGIAELIALEISNKTNIPVEETRKKIWLVDSKGLIVSGRKETLQAFKKPWAHEHEPVNNLLDAVKAVKPTVLIGTSGTGRTFTKEVVEAMACMNKRPLIMALSNPTSQAECTAEEAYTWSEGRAVFASGSPFPSFEYDGKLNIPGQANNCYIFPGFGFGLVMSGTIRVHDDMLLAASEALAAQVTEEHYAKGMIYPPFADIRKISAHIAASVAAKAYELGVATRLPRPADLVKYAESCMYTPNYRSYR |  | 5.0 ± 1.1 | 26.5 ± 1.7

— doi:10.1101/2025.02.12.637823v1 (biorxiv, 2025)
